From the nanobody polyreactivity screen of Harvey et al. (2022)

Assay: yeast display, Sf9 membrane polyspecificity reagent, FACS + sequencing; frameworks hold sequencing errors
Procedure, shortened: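 In a synthetic yeast display library (Saccharomyces cerevisiae BJ5465), nanobody expression was induced with galactose for 36–48 hours. FACS gates were set low and high (top ~1%) using anti-HA fluorescence for expression and streptavidin fluorescence for binding of the Sf9 membrane reagent. Each polyreactivity label is drawn from the gate of origin.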

Row | Sequence | polyreactivity (PSR sort gate)
1 | QVQLVESGGGLVQAGGSLRLSCAASGRTYRYNAMGWYRQAPGKERELVATITRTGSTDYADSVKGRFTISRDNAKNTVYLQMNSLKPEDTAVYYCNARGVYSGRTYYYIYDYWGQGTQVTVSS | high polyreactivity
2 | QVQLVESGGGLDQAGGSLRLSCAASGRIFSFNAMGWYRQAPGKERELVAAISWSTGSTFYADSVKGRFTISRDNAKNTVYLQMNSLKPEDTAVYYCAREYYYRRGFFLRGYWGQGTQVTVSS | high polyreactivity
3 | QVQLVESGGGLVQAGGSLRLSCAASGSIFRSNAMGWYRQAPGKERELVAAITQSGDTTNYADSVKGRFTISRDNAKNTVYLQMNSLKPEDTAVYYCNADTDRYWPYEYDYWGQGTQVTVSS | low polyreactivity
4 | QVQLVESGGGLVQAGGSLRLSCDASGSIFGGYAMGWYRQAHGKARELVAGISSGGSTYYADSVKGRFTISRDNAKNTVYLQMNSLKPEDTAVYYCATSTYAYRRNSYYYTRPRFGYCGQGTQVTVSS | high polyreactivity
5 | QGQLVESGGGLVQAGGRLRLSCAASGSTFYGNAMGWYRQAPGKERELVAAITWGDASTYYADSVKGRFTISRDNAKNPVYLQMNSLKPEDTAVSYCAVDESYGSSSDMDYWGQGTQVTVSS | low polyreactivity
6 | QVQLVESGGGLVQAGASLRLSCAASGRIFHHNVMGWYIQAPGKERELVAAISQSGGSTYYADSVKGRFTISRDNAKNTVYLQMNSLKPEDTAVYYCNDGAAGRRYNYWGQGTQVTVSS | low polyreactivity
7 | QVQLVESGGGLVQAGGSLRLSCAASGFIFGYNAMGWYRQAPGKERELVAAISSSGGSTYYADSVKGRFTISRDNAKNTVYLQMNSLKPEDTAVYYCAAESLTGYAHYDYWGQGTQVTVSS | low polyreactivity
8 | QVQLVESGGGLVQAGGSLRLSCAASGFIYHGYTMGWYSQAPGKERDLVAAITTSGTSTYYADSVKGRFTISRDNAKNTVYLQMNSLKPEDTAVYYCYDYVPGGYSRPYYYRFDHWGQGTQVTVSS | high polyreactivity
9 | QVQLVESGGGLVQAGGSLRLSCAASGSIFSPYAMGWYRQAPGKQRELVAAISKTGGSTYYADSVKGRFTISRDNAKNTVYLQMNSLKPEDTAVYYCATQGPRWVRHFDYWGQGTQVTVSS | low polyreactivity
10 | QVQLQESGGGLVQAGGGLRLSCAASGTISGPHVMGSSRQAPRKEREFLAAINVGANTYYADNVKGRFTISRDNAKNTVYLQMNSLKPEDTAVYYCAAVYYGDIGHEYWGQGTQVTVSC | low polyreactivity
11 | QVQLVESGGGLVQAGGSLRLSCADSGLIFKSYAMGWYRQARGKERELVAAISGNDGSTYYADSVKGRFTISRDNAKNTVYLQMNSLKPEDTAVYYCAADFSGPWYEYTFNYCGQGTQVTVSS | high polyreactivity
12 | QVQLVESGGGLVQAGGSLRLSCAASGSILSGYAMGWYRQAPGTERELVAAINDGGGTNYADSVKGRFTISRDNAKNTVYLQMKSLKPEDTAVYYCAAEQSVSFLVFTGVKFDYWGQGTQVTVSS | low polyreactivity
13 | QVQLVESGGGLVQAGGSLRLSCAASGRTFVFNAMGWYRQAPGKERELVAAISARGGRTYYADSVKGRFTISRDNAKNTVYLQMNSLKPEDTAVYYCATVPYPNRKVGVDYWGQGTQVTVSS | high polyreactivity
14 | QVQLVESGGGLVQAGGSRRLSCAASGRIFRIYAMGWYRQAPGKERELVAAITWSGGSTYYADSVKGRFPISRDNAKNTVYLQMNSLKPEDTAVYYGAAKARSNKYNYWGQGTQVTVSS | high polyreactivity
15 | QVQLVESGGGLVQAGGSLRLSCAASGRTFYRYVMGWYRQAPGKERELVAAITPGGSTYADSVKGRFTISRDNAKNTVYLQMNSLKPEDTAVYYCNAKVGAYLNYGYWGQGTQVTVSS | low polyreactivity
16 | QVQLVESGGGLVQAGGSLRLSCAASGSIFESYAMGWYRQAPGKERELVAAIDSGDSTYYADSVKGRFTISRDNAKNTVYLQMNSLKPEDTAVYYCAAGYLFLKRIWQSRMDYWGQGTQVTVSS | low polyreactivity
17 | QVQLVESGGGLVQAGGSLRLSCAASGFIFGLNAMGWYRPAPGKERELVAAISYNGGSTYYADSVKGRFTISRDNAKNTVYLQMNSLKPEDTAVDYCNAYLYRKVGYRAYDYWGHGTQVTVSS | low polyreactivity
18 | QVQLVESGGGLVQAGGSLRLSCAASGSTSTWYAMGWYRQAPGKERELVATITGSGDTTYYADSVKGRFTISRDNAKNTVYLQMNSLKPEDTAVYYCAADYDPDDDTYDYWGQGTQVTVSS | low polyreactivity
19 | QDQLGESGGGLVQAGGSLRLICAASGRIFVSNTMGCYRQAPGKERELVATISRRGGITYYADSVKGRFTISRDNAKNTVYLQMNSLKPEDTAVYYCAAESYSFWLYDYCGQGTQVTVSS | high polyreactivity
20 | QVQLVESGGGLVQAGGSLRLSCAASGSTFFLYAMGWYRQAPGKERELVAAITYTDGDTYYADSVKGRFTISRDNAKNTVYLQMNSLKPEDTAVYYCAAYRFPYFPSIAYYYTYYSWGQGTQVTVSS | low polyreactivity
21 | QVQLVESGGGLDQAGGSLRLSCAASGRTFYVYGMGWSRQAPGKERELVAAIRSSGGSTYADSVKGRFTISRDNAKKTVYLQMNSLKPEDTAVDYCAADRRYAESGYYWGQGTQVTVSS | high polyreactivity
22 | QVQLVESGGGLVQAGGSLRLSCAASGFTFWGNAMGWYRQAPGKEREMVAAITDTGSTNYADSVKGRCTISRDNAKNTVYLQMNSLKPEDTAVYYCAKDKAYYDWGQTNGYWGQGTQVTVSS | low polyreactivity

Row | Sequence | polyreactivity (PSR sort gate)
23 | QVQLVESGGRLVQAGRSLRLSCAASGSIFHDYAMGWYRQAPGKERELVAVISTSGGSTYYADSVKGRFTISRDNAKNTVYCQMNRLKPEDTAFYYCNARTVGPYPSHAALEYDSWGQGTQVTVSS | low polyreactivity
24 | QVQHVESGGGLGQARRSLRLSCAASGTIINANAMGWDRQAPGKERELVASISGGAGSTYYADSVKGRFTISRDNAKNTVYLQMNSLKPEDTAVYYCAADRPYRYDYWGQGTQVTVSS | low polyreactivity
25 | QVQLVESGGGLVQAGCSLRLSSAASGFIYYRYAMGWYRQAHGKERELVAAISRSGGSTYYADSVKGRFTISRDNAKNTVYVQMNRLKPEDTAVYYCAADSGSLAPGNDYWGQGTQVTVSS | high polyreactivity
26 | QVQLVESGGGLVQAGGSLRLSCAASGFTFGYYAMGWYRQAPGKERELVATITSSGASTYADSVKGRFTISRDNAKNTVYLQMNSLKPEDTAVYYCAADRLPSYWSWYGYDYWGQGTQVTVSS | high polyreactivity
27 | QVKLVESGGGLVQAGGSLRLSCAASGFIFAHYAMGWYRQAPGKERELVAAIRGGDGSTDYADSVKGRFTISRDNAKNTVYLQMNSLIPEDTAVYYCAKRGKRSRGVGGNYWGQGTQVTVSS | low polyreactivity
28 | QVQLVESGGALVQAGGRLRLSCAASGLTLHRYTMGWYRQAPGKERELVAVITYGGGNTYYADSVKGRFTISRDNAKNTVYLQMNSLKPEDNAVYYCAARYPPFYWYDYWGQGTQVSVSS | low polyreactivity
29 | QVQLVESGVGLVQAGGSLRLSCASSGSIFAYNTMGWYRQAPGKEREFVAAISWLGGSTYYADSVKGRFTISRDNAKNTVYLQMNSLKPEDTAVYYCNARYRTTFYTRRYDYWGQGTQVTVSS | low polyreactivity
30 | QVQLVESGGGLDQAGGSLRLSCAASGSTFRSYAMGWYRQAPGKERELVAVISSGDSTYYADSVKGRFTISRDNAKNTVYLQMNSLKQEDTAVYYCAADSYVLGRWYGYWGQGTQVTVSS | low polyreactivity
31 | QVQLVESGGGLVQAGGSLRLTCDASGSTFVNYAMGWYRQAPGKERELVAAITDSGGSTYYADSVKGRFTISRDNAKNTVYLQMNCLKPEDTAVYYCATEGYYYYTSYDYWGQGTQVTVSS | low polyreactivity
32 | QVQLVESGGGLVLAGGSLRLSCAASGSILTFYAMGWYRQAPGKERELVARITLIVARTNYADSVKARFTISRDNAKNTVYLQMNSLKPEDTAVYYCAKRDGDSGIGFGYWGQGTQVTVSS | low polyreactivity
33 | QVQLVETGGGLVQAGGSHSLSCAAAGSTFSRYAMGWYRQAPGTETELVAGISWSGGNTYYADSVKGRVTISRDNAKNTVYLQMNSLKPEETAVYYCAADFLEYWVVYGWAEYEYWAQGTQVTVSS | low polyreactivity
34 | QVQLVESGGGLVQAGGSLRLSCAASGRIFTHYAMGWYRQAPGKERELVASISWSGGSTNYADSVKGRFTMSRDNAMNTVYLQMNSLKPEDTAVYYCARKYRYLFATFDYWGQGTQVTVSS | high polyreactivity
35 | QVQLVESGGGLVQAGGSLRLSCAASGNIFLYYAMGWYRQAPGKERELVADIDSSGASTYYADSVKGRFTISRDNAKNTVYLQMNSLKPEDTAVYYCATEDFRTDTGMYYWGQGTQVTVSS | low polyreactivity
36 | QVQLVESGGGLVQAGGSLRLSCAASGSIFVRYTMAWYRQAPGKERELVAAISWGGGSTYYADSVKGRFTISRDNAKYTVYLQMNSLKPEDTAVYFCNKRYIQLYDYWGQGTQVTVSS | low polyreactivity
37 | QVQLVESGGGLVQAGGSLRLSCAASGFIFPSYAMGWYRQAPGKERELVATISKRVATTYYADSVKGRFTISRDNAKNTVYLQMNSLKPEDTAVYYCAAAYRGYARHDYWGQGTQVTVSS | high polyreactivity
38 | QVQLVESGGGLVQAGGSLRLSCAASGSTFGHYTMGWYRQAPGKERELVAAITYSGGRTYYADSVKGRFTISRDNAKNTVYLQMNSLKPEDTAVYYCNAKSFRILDNFAYRVDYDYWGQGTQVTVSS | low polyreactivity
39 | QVQLVQSGGGLVQERGSLRLSCAASGRIFVKYTMGWSRQAPGKERELVAAIDFDTDSTYYADSVTGRFTISRDNAKNTVYLQMYSLKPEDTAVYYCATGYLYFTSYRYNYWGQGTQVTVSS | low polyreactivity
40 | QVQLVESGGGLVQAGVSLRLSCAASGRIFNGNAMGWYRQAPGIEWELVATITRGGGSTYYADSVKGRFTISRDNAKKTVYLQMNSLKPEDTAVYSCNVPPPTQVRYRSDHWGQGTQVTVSS | low polyreactivity
41 | QVQLVESGGGLVQAGGSLRLSCAASGLIFYRNALGWYRQEPGKERELVATISRRGGRTYYADSVKGRFTISRDNAKNTVYLQMNSLNPEDTAVYYCNADDYSSRGGYDSWGQGTQVTVSS | high polyreactivity
42 | QVQLVESGGGLVQAGGSLRLSCAASGRTFRPNVMGWYRQAPGKERELVAAISNGGRTYYADSVKGRFTISRDNAKNTVYLQMNSLKPEDTAVYYCNKVRSPWYDSWGQGTQVTVSS | high polyreactivity
43 | QVQLVESGGGLVQAGGSLRLSCAASGSISSWYAMGWYRQAPGKERELVAAISSGVTTYYADSVKGRFTISRDNAKNTVYLQMHSLKPEDTAVDYCAAKTALYRERGYWGQGTQVTVSS | low polyreactivity
